Laboratory results reported in article PMC8184850, “Cryo-EM structure of TFIIH/Rad4–Rad23–Rad33 in damaged DNA opening in nucleotide excision repair” (Nature Communications, 2021).

B1: -24/+15 AAF (dsDNA)
DNA 1: CCCATTCCAACCATCCCACTACCTGTCCATCTTCACTCA
DNA 2: TGAGTGAAGATGGACAGGTAGTGGGATGGTTGGAATGGG
modifications: N-2-acetylaminofluorene adduct on the single G of strand 1 (nt 25); printed strand spans -24 to +14
B2: -24/+24 AAF (dsDNA)
DNA 1: CCCATTCCAACCATCCCACTACCTGTCCATCTTCACTCAACTATCACCC
DNA 2: GGGTGATAGTTGAGTGAAGATGGACAGGTAGTGGGATGGTTGGAATGGG
modifications: N-2-acetylaminofluorene adduct on the single G of strand 1 (nt 25, position 0)
B3: -24*/+24 AAF (dsDNA)
DNA 1: B2 DNA 1
DNA 2: GGGTGATAGTTGAGTGAAGATGGACAGGTAGTGGGATGGT
modifications: N-2-acetylaminofluorene adduct on the single G of strand 1 (nt 25, position 0)

Key:
[1] = target: T1, coreTFIIH (7 subunits);Rad4-Rad23 (Saccharomyces cerevisiae? (yeast, tfb6 …, UniProt Q00578;P06839;P32776;Q02939;Q04673;Q12004;Q3E7C1;P14736;P32628 …, |)); assay: EMSA; AMP-PNP, 2 mM Mg2+; EMSA: 20 mM HEPES, 100 mM K-acetate, 2 mM Mg-acetate, 5 mM DTT, room temperature 20 min, 250 nM each component, 0.2x TBE agarose gel at 4 C (pH not stated in this buffer); conditions: protein: native;recombinant; tags: TAP tags on Tfb4 and Ssl2; TEV-treated;His-purified, thrombin-digested; copies: 1;1;1;1;1;1;1;1;1; label: 32P 5' end (T4 PNK) in EMSA; blunt
[2] = target: T2, coreTFIIH (7 subunits);Rad4-Rad23;Rad33 (Saccharomyces cerevisiae? (yeast, tfb6 …, UniProt Q00578;P06839;P32776;Q02939;Q04673;Q12004;Q3E7C1;P14736;P32628;Q04231 …, ||)); assay: EMSA; 100 nM Rad33; Rad4-Rad23 0-100 nM; EMSA: 20 mM HEPES, 100 mM K-acetate, 2 mM Mg-acetate, 5 mM DTT, room temperature 20 min, 250 nM each component, 0.2x TBE agarose gel at 4 C (pH not stated in this buffer); conditions: protein: native;recombinant;recombinant; tags: TAP tags on Tfb4 and Ssl2; TEV-treated;His-purified, thrombin-digested;His (HisTrap-purified, pETDuet); copies: 1;1;1;1;1;1;1;1;1;1; label: 32P 5' end (T4 PNK) in EMSA; blunt
[3] = target: T2, coreTFIIH (7 subunits);Rad4-Rad23;Rad33; assay: glycerol gradient sedimentation; ATP; EMSA: 20 mM HEPES, 100 mM K-acetate, 2 mM Mg-acetate, 5 mM DTT, room temperature 20 min, 250 nM each component, 0.2x TBE agarose gel at 4 C (pH not stated in this buffer); conditions: protein: native;recombinant;recombinant; tags: TAP tags on Tfb4 and Ssl2; TEV-treated;His-purified, thrombin-digested;His (HisTrap-purified, pETDuet); copies: 1;1;1;1;1;1;1;1;1;1; label: 32P 5' end (T4 PNK) in EMSA; 5' overhang on strand 1: 9 nt from printed strands (text says 10 nt)
[4] = target: T1, coreTFIIH (7 subunits);Rad4-Rad23; assay: EMSA; ATP 4 mM, 2 mM Mg2+; EMSA: 20 mM HEPES, 100 mM K-acetate, 2 mM Mg-acetate, 5 mM DTT, room temperature 20 min, 250 nM each component, 0.2x TBE agarose gel at 4 C (pH not stated in this buffer); conditions: protein: native;recombinant; tags: TAP tags on Tfb4 and Ssl2; TEV-treated;His-purified, thrombin-digested; copies: 1;1;1;1;1;1;1;1;1; label: 32P 5' end (T4 PNK) in EMSA; 5' overhang on strand 1: 9 nt from printed strands (text says 10 nt)

| Binder | binding result [1] | binding result [2] | binding result [3] | binding result [4] |
| --- | --- | --- | --- | --- |
| B1 | binds |  |  |  |
| B2 | binds | binds |  |  |
| B3 |  |  | binds | binds |
